These results are taken from patent US20090162945.

Data set [1] addresses Synthetic 43-mer histone H3 (1-40) peptide tri-methylated at lysine 9, …(me3)…-Tyr-Cys-(Ttds)-Lys-biotin.
The target of data set [2] is Synthetic 43-mer histone H3 (1-40) peptide tri-methylated at lysine 27, …-Tyr-Cys-(Ttds)-Lys-biotin.
Synthetic 43-mer histone H3 (1-40) peptide tri-methylated at lysine 27, …-Tyr-Cys-(Ttds)-Lys-biotin, sequence (chain, as listed by the source): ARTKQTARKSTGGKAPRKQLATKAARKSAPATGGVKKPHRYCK

Synthetic 43-mer histone H3 (1-40) peptide tri-methylated at lysine 9, …(me3)…-Tyr-Cys-(Ttds)-Lys-biotin, sequence (chain, as listed by the source): as above

B1: Recombinant full-length amino-terminally hexahistidine-tagged human GASC1 (protein)
chain: MEVAEVESPLNPSCKIMTFRPSMEEFREFNKYLAYMESKGAHRAGLAKVIPPKEWKPRQCYDDIDNLLIPAPIQQMVTGQSGLFTQYNIQKKAMTVKEFRQLANSGKYCTPRYLDYEDLERKYWKNLTFVAPIYGADINGSIYDEGVDEWNIARINTVLDVVEEECGISIEGVNTPYLYFGMWKTTFAWHTEDMDLYSINYLHFGEPKSWYAIPPEHGKRLERLAQGFFPSSSQGCDAFLRHKMTLISPSVLKKYGIPFDKITQEAGEFMITFPYGYHAGFNHGFNCAESTNFATVRWIDYGKVAKLCTCRKDMVKISMDIFVRKFQPDRYQLWKQGKDIYTIDHTKPTPASTPEVKAWLQRRRKVRKASRSFQCARSTSKRPKADEEEEVSDEVDGAEVPNPDSVTDDLKVSEKSEAAVKLRNTEASSEEESSASRMQVEQNLSDHIKLSGNSCLSTSVTEDIKTEDDKAYAYRSVPSISSEADDSIPLSTGYEKPEKSDPSELSWPKSPESCSSVAESNGVLTEGEESDVESHGNGLEPGEIPAVPSGERNSFKVPSIAEGENKTSKSWRHPLSRPPARSPMTLVKQQAPSDEELPEVLSIEEEVEETESWAKPLIHLWQTKSPNFAAEQEYNATVARMKPHCAICTLLMPYHKPDSSNEENDARWETKLDEVVTSEGKTKPLIPEMCFIYSEENIEYSPPNAFLEEDGTSLLISCAKCCVRVHASCYGIPSHEICDGWLCARCKRNAWTAECCLCNLRGGALKQTKNNRWAHVMCAVAVPEVRFTNVPERTQIDVGRIPLQRLKLKCIFCRHRVKRVSGACIQCSYGRCPASFHVTCAHAAGVLMEPDDWPYVVNITCFRHKVNPNVKSKACEKVISVGQTVITKHRNTRYYSCRVMAVTSQTFYEVMFDDGSFSRDTFPEDIVSRDCLKLGPPAEGEVVQVKWPDGKLYGAKYFGSNIAHMYQVEFEDGSQIAMKREDIYTLDEELPKRVKARFSTASDMRFEDTFYGADIIQGERKRQRVLSSRFKNEYVADPVYRTFLKSSFQKKCQKRQ
In the case of B1, in data set [1], the “demethylation of H3K9me3 peptide, mass spectrometry” value was “the majority of H3K9me3 peptide (approximately 80%) was converted to di- and mono-methylated H3-K9 after incubation of with GASC1”; the “formaldehyde release (demethylation-FDH-coupled assay)” value was “recombinant His-tagged GASC1 released formaldehyde”; the “in vitro demethylation of synthetic peptide, western blotting” value was “Following 30 minutes incubation of pure tri-methylated H3K9 with GASC1 almost all tri-methyl H3K9 was converted to di- and mono-methyl H3K9”. For the same protein, the “demethylation assay, immunoblotting of the methylation mark” value in data set [2] is “tri-methylated H3K27 and tri-methylated H4K20 appeared to be unaffected by GASC1 treatment”.

B2: Recombinant full-length histidine-tagged human JMJD2a (protein)
chain: MASESETLNPSARIMTFYPTMEEFRNFSRYIAYIESQGAHRAGLAKVVPPKEWKPRASYDDIDDLVIPAPIQQLVTGQSGLFTQYNIQKKAMTVREFRKIANSDKYCTPRYSEFEELERKYWKNLTFNPPIYGADVNGTLYEKHVDEWNIGRLRTILDLVEKESGITIEGVNTPYLYFGMWKTSFAWHTEDMDLYSINYLHFGEPKSWYSVPPEHGKRLERLAKGFFPGSAQSCEAFLRHKMTLISPLMLKKYGIPFDKVTQEAGEFMITFPYGYHAGFNHGFNCAESTNFATRRWIEYGKQAVLCSCRKDMVKISMDVFVRKFQPERYKLWKAGKDNTVIDHTLPTPEAAEFLKESELPPRAGNEEECPEEDMEGVEDGEEGDLKTSLAKHRIGTKRHRVCLEIPQEVSQSELFPKEDLSSEQYEMTECPAALAPVRPTHSSVRQVEDGLTFPDYSDSTEVKFEELKNVKLEEEDEEEEQEAAALDLSVNPASVGGRLVFSGSKKKSSSSLGSGSSRDSISSDSETSEPLSCRAQGQTGVLTVHSYAKGDGRVTVGEPCTRKKGSAARSFSERELAEVADEYMFSLEENKKSKGRRQPLSKLPRHHPLVLQECVSDDETSEQLTPEEEAEETEAWAKPLSQLWQNRPPNFEAEKEFNETMAQQAPHCAVCMIFQTYHQVEFGGFNQNCGNASDLAPQKQRTKPLIPEMCFTSTGCSTDINLSTPYLEEDGTSILVSCKKCSVRVHASCYGVPPAKASEDWMCSRCSANALEEDCCLCSLRGGALQRANDDRWVHVSCAVAILEARFVNIAERSPVDVSKIPLPRFKLKCIFCKKRRKRTAGCCVQCSHGRCPTAFHVSCAQAAGVMMQPDDWPFVVFITCFRHKIPNLERAKGALQSITAGQKVISKHKNGRFYQCEVVRLTTETFYEVNFDDGSFSDNLYPEDIVSQDCLQFGPPAEGEVVQVRWTDGQVYGAKFVASHPIQMYQVEFEDGSQLVVKRDDVYTLDEELPKRVKSRLSVASDMRFNEIFTEKEVKQEKKRQRVINSRYREDYIEPALYRAIME
Turning to B2, the “demethylation of synthetic H3K9 peptides, western blotting” value in data set [1] is “GASC1 and its homolog JMJD2A appeared to have a comparable ability to demethylate synthetic H3K9 substrates”.
